Data from publication PMC5121336.

Molecular target: human LDL (low-density lipoprotein) (human)
Test: SPR; LDL amine-coupled to a CM5 chip (Biacore T100); LDLR^ecto (5-388 nM) or ALK1^ecto (0.19-15.3 uM) as analytes, single cycle kinetics; 25 °C; 25 mM HEPES pH 7.4, 150 mM NaCl, 0.1 mM CaCl2; 1:1 binding model; apparent

Chain of ALK1^ecto-Fc (P37023 22-118): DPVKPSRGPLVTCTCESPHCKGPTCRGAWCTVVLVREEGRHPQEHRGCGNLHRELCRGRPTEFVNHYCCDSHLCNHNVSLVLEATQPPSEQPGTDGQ

Row | Kd [nM] | Substance
1 | 7 | LDLR^ecto-(His)6 (from UniProt P01130 22-788) (domain or fragment)
2 | 200 | ALK1^ecto-Fc (from UniProt P37023 22-118) (Fc fusion)
